From publication PMC7672466, “Biophysical analysis of Pseudomonas-phage PaP3 small terminase suggests a mechanism for sequence-specific DNA-binding by lateral interdigitation”

How the values were obtained:
PaP3 ΔC122-TerS [1] = molecular target: T1, PaP3 ΔC122-TerS (Pseudomonas phage PaP3, UniProt Q8H9R5 1-121, del122-152); test: EMSA; 0.15 uM cos DNA on agarose, also 4-16% acrylamide; comparable to WT; EMSA: incubation 37 C 30 min (binding buffer not stated; proteins in GF buffer 20 mM Tris-HCl pH 7.5, 150 mM NaCl, 5 mM bME, 2.5% glycerol); 1% agarose or 4-16% acrylamide gel, 0.5x TBE, 4 C; details: protein: recombinant; tags: GST removed by PreScission protease; chain copies: 9; label: 5' Cy3 on both strands; blunt
T1 sequence: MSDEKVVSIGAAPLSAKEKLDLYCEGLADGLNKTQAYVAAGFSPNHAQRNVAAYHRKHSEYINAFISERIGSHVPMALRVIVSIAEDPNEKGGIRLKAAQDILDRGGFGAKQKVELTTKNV

PaP3 ΔC122-TerS [2] = molecular target: T1, PaP3 ΔC122-TerS; test: EMSA; 4-16% acrylamide; stronger than WT on scr; EMSA: incubation 37 C 30 min (binding buffer not stated; proteins in GF buffer 20 mM Tris-HCl pH 7.5, 150 mM NaCl, 5 mM bME, 2.5% glycerol); 1% agarose or 4-16% acrylamide gel, 0.5x TBE, 4 C; details: protein: recombinant; tags: GST removed by PreScission protease; chain copies: 9; label: 5' Cy3; blunt

Binder | binding result (PaP3 ΔC122-TerS [1]) | binding result (PaP3 ΔC122-TerS [2])
Cy3-cos (dsDNA) DNA 1: GCCGGCCCCTTTCCGCGTTA DNA 2: TAACGCGGAAAGGGGCCGGC | binds | 
Cy3-scr (dsDNA) DNA 1: GCACTGCAGTAACTTGTCAGTCAT DNA 2: ATGACTGACAAGTTACTGCAGTGC |  | binds
